Here are results for two substances from patent publication US7572770B2, “Use of an interleukin 1 receptor antagonist and/or pyrrolidinedithiocarbamate for the treatment or prophylaxis of type 2 diabetes” (University of Zurich, priority 2002, dated 2009).

For data set [1] the following is noted: cited from earlier work.
Another data set deals with T1, type II IL-1R (Homo sapiens, UniProt P27930).
T1 sequence (P27930 14-398): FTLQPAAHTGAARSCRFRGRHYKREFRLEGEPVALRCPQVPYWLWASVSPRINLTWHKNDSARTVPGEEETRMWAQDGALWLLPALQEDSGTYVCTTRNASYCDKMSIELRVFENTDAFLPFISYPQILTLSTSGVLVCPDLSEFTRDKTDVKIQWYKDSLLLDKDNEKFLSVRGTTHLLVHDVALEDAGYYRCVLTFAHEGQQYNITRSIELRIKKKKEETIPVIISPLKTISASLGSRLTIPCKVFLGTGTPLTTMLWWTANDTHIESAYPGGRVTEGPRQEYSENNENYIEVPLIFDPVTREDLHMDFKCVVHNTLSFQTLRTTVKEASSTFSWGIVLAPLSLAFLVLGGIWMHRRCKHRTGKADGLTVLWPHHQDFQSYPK
As to conditions: read-out: Kd, binding to type II IL-1R; cited from earlier work.

The next data set deals with Fas. Description: Fas expression in human islets (Western blot, RT-PCR, immunostaining). Type of data set: cell-based. The settings on record: 33.3 mM glucose with IL-1Ra. As to the method:
Western blot analysis. Islets were cultured in a culture medium in non-adherent plastic dishes. One day after isolation, the medium was changed and groups of 200 islets were incubated for 44 hours in culture medium containing 5.5 or 33.3 mM glucose without or with 2 ng/ml IL-1β or 500 ng/ml IL-1Ra. At the end of the incubations, islets were washed in PBS, suspended in 50 μl sample buffer containing 125 mM Tris-HCl, pH 6.8, 4% SDS, 10% glycerol, 0.3% bromphenol blue, 1.8% β-mercaptoethanol and boiled for 5 min. Equivalent amounts of each treatment group were run on 15% SDS polyacrylamide gels. […] Intensity of bands was analyzed using Multianalyst™ (Bio Rad, Laboratories inc., Hercules, Calif.).
RNA extraction, RT-PCR and sequencing of RT-PCR product. […] The conditions of the PCR amplification for IL-1β and Fas were: denaturation 30 seconds at 94° C., annealing 30 seconds at 60° C. and elongation 30 seconds at 72° C., followed for real time PCR by quantification 5 seconds at 80° C., 45 cycles. […] For quantitative analysis, we used the Light Cycler quantitative PCR system (Roche, Basel, Switzerland) and performed quantitative PCR with a commercial kit (Light Cycler-DNA Master SYBR Green I; Roche). […]

A further data set concerns IL-1Ra. The experiment in a line: IL-1Ra release and mRNA in human blood monocytes. Type of data set: cell-based. As to conditions: leptin, 15 and 48 hours. As to the method: (§1) Human blood monocytes were isolated as described previously (37), cultured in RPMI 1640 (Invitrogen) containing 100 U/ml penicillin, 100 μg/ml streptomycin and 10% fetal calf serum and exposed to 10 or 500 nM leptin.
RNA extraction and RT-PCR. Islets were cultured in a suspension as described above. Total RNA was extracted using Rneasy mini kit (Qiagen, Basel, Switzerland) and RT-PCR was performed using the Superscript™ II Rnase H-Reverse transcriptase kIT and oligo (dT) (7) (Life technologies, Gaithersburg, Md., USA) according to the instructions from the manufacturers. The following primers were used: 5′[…]3′(SEQ ID. NO. 1)/5′[…]3′ (human IL-1Ra) (SEQ ID.NO. 2) and 5′[…]3′(SEQ ID. NO. 3)/5′[…]3′ (human IL-1β) (SEQ ID. NO. 4). PCR conditions were: denaturation for 30 seconds at 94° C., annealing for 30 seconds at 60° C., and elongation for 30 seconds at 72° C., followed for real time PCR by quantification for 5 seconds at 82° C.; repetition for 40 cycles. Saturation of PCR product occurred between 19 and 33 cycles. […] For quantitative analysis, we used the LightCycler quantitative PCR system (Roche) and performed quantitative PCR with a commercial kit (LightCycler-DNA Master SYBR Green I; Roche). […]
(§2) Cytokine release. Cytokine release was evaluated in the culture medium collected before the termination of each experiment using human IL-1β and IL-1Ra ELISA kits (R&D Systems Inc.).

For a further data set, the system named is IL-1β. The experiment in a line: IL-1β release from human blood monocytes exposed to leptin. Format: cell-based. How it is done:
as §1, §2

A word on the Kd: it is the concentration at which binding is half-saturated. Regarding “Interleukin 1 receptor antagonist [IL-1Ra]”, in data set [1] (human, in vivo), the patients with infections was 40% and the “patients with serious infections” value is listed as 1.8%. The “patients developing neutropenia (absolute neutrophil count 1×10^9/l or less)” value in data set [1] (placebo-controlled trials, rheumatoid arthritis) was 0.3%. In data set [1] (rheumatoid arthritis patients), the “patients requiring discontinuation of treatment (injection site reactions)” value is on record as “up to 5%”. In addition, the “most commonly reported adverse effects” value in data set [1] (subcutaneous treatment, rheumatoid arthritis patients) is on record as “Injection site reactions”. The Kd with type II IL-1R was 7 nM. In addition, the “glucose-dependent induction of Fas-receptor protein and mRNA” value in the data set on Fas is “hindered”.

“leptin: rh leptin (PeproTech); protein encoded by the ob gene”: the “IL-1Ra release and mRNA in peripheral blood monocytes” value with IL-1Ra is on record as “A similar dual effect”. Besides, the “IL-1β release from peripheral blood monocytes” value is reported as “increased IL-1β release” with IL-1β (15 hours) and “did not significantly affect IL-1β release” with IL-1β (48 hours).
